Results from patent US12116387B2, “Antimicrobial peptides” (priority 2021, dated 2024).
“Also recorded” adds a separate entry of the source. Read-outs that look alike come from different tables or passages of the source.

Experiments:
S. aureus ATCC29213 = experiment: Systemic sepsis infection mouse model, S. aureus ATCC29213; type: in vivo; conditions: 5 mg Kg^−1 i.p.
Protocol: (§1) FIG. 5A-5I pertains to a study of the anti-infective activity of mast-MO against Gram-negative and Gram-positive pathogens in a lethal sepsis infection model. In FIG. 5A mice were infected with bacteria, treated with each peptide or antibiotic and monitored for 8 days. Survival and cell counts after 24 h, respectively, are shown for E. coli ATCC8739 (2×10^4 CFU/mL inoculum) FIG. 5B and FIG. 5C, S. aureus ATCC29213 (2×10^9 CFU/mL inoculum) FIG. 5D and FIG. 5E, E. coli 1812446 (KPC-positive) (2×10^4 CFU inoculum) FIG. 5F and FIG. 5G, and S. aureus (MRSA) ATCC33591 (2×10^9 CFU inoculum) FIG. 5H and FIG. 5I. Mice were treated intraperitoneally (i.p.) with 1, 5 and 10 mg Kg^−1 of mast-L, mast-MO or 10 mg Kg^−1 of the antibiotics gentamicin and imipenem. PBS was used as a control for the untreated group of mice. Treatments were administered 3 h post-infection. Data are expressed as the mean±standard deviation. Statistical analysis was performed using Bonferroni test. […], **p<0.01, ***p<0.001 compared to the untreated control.
(§2) Systemic bacterial infection mouse model. […] Animals were humanely killed 24 h after bacterial administration.

S. aureus MRSA ATCC33591 = experiment: Systemic sepsis infection mouse model, MRSA; type: in vivo; conditions: 5 mg Kg^−1 i.p.
Protocol: as §1, §2

[1] = system: E. coli and S. aureus strains; experiment: Systemic infection experiments, summary over all strains; conditions: 10 mg Kg^−1
Protocol: To determine the anti-infective activity of mast-MO in a pre-clinical mouse model, the ability of the peptide to kill pathogenic and drug-resistant E. coli and S. aureus strains was tested in a systemic sepsis infection mouse model (FIG. 5). The minimal bacterial load resulting in a lethal dose (LD100) 24 h post-intraperitoneal injection was first determined. […] Mice were infected with the LD100 of bacteria and treated 3 h post-infection with either mast-L (1 and 5 mg Kg^−1) or mast-MO (1, 5 and 10 mg Kg^−1), which were also administered intraperitoneally.
Systemic bacterial infection mouse model. […] The experiment was performed by intraperitoneal (i.p.) injection of the tested peptides to groups of 10 C57BL/6 mice. Each mouse was injected with a 0.5 mL solution of freshly prepared of peptides in PBS. The doses of peptide administered per mouse were 0, 10, 30, 50, 70 and 90 mg Kg^−1 of body weight. Animals were directly inspected for adverse effects for 6 h, and mortality was monitored for 7 days thereafter. Differences between groups were analysed using the Fisher exact test (differences were considered to be statistically significant when the P value was <0.05). Briefly, E. coli ATCC8739 and E. coli 1812446 or S. aureus ATCC 29213 and S. aureus (MRSA) ATCC33591 were plated on tryptic soy agar plus 5% sheep blood (blood agar, Himedia, India) from a frozen stock. Following 24 h of incubation of the agar plate, three isolated colonies were transferred to 1 mL of BHI. The broth culture was incubated overnight (12-16 h) at 37° C. with shaking. […] Mice were challenged with either strain of E. coli ATCC8739 and E. coli 1812446 or S. aureus ATC29213 and S. aureus (MRSA) ATCC33591 in a final volume of 200 μL of PBS by intraperitoneal injection (i.p.). The day of challenge was designated as day 1 of the experiment. Three hours after bacterial injection, mice (n=5) were treated, intraperitoneally, with different concentrations of peptides (1, 5 or 10 mg Kg^−1), LL-37, gentamicin and 10 mg Kg^−1 of imipenem or PBS for 8 days. For bacterial load evaluation, 5 mice per group were used. […]

mice = system: mice
Protocol: Therefore, the anti-infective activity of mast-MO was then tested in pre-clinical mouse models. First, the toxicity of a single dose of either mast-L or mast-MO administered peritoneally to mice was assessed in order to determine the range of concentrations to be used in subsequent animal experiments. The hemolytic activity of mast-MO (up to 200 μmoL^−1) against murine red blood cells (Table 6) was also tested prior to conducting animal experiments.
Systemic bacterial infection mouse model. Acute toxicity assay was performed based on the work of Navon-Venezia and co-workers (46). The experiment was performed by intraperitoneal (i.p.) injection of the tested peptides to groups of 10 C57BL/6 mice. Each mouse was injected with a 0.5 mL solution of freshly prepared of peptides in PBS. The doses of peptide administered per mouse were 0, 10, 30, 50, 70 and 90 mg Kg^−1 of body weight. Animals were directly inspected for adverse effects for 6 h, and mortality was monitored for 7 days thereafter. Differences between groups were analysed using the Fisher exact test (differences were considered to be statistically significant when the P value was <0.05). Briefly, E. coli ATCC8739 and E. coli 1812446 or S. aureus ATCC 29213 and S. aureus (MRSA) ATCC33591 were plated on tryptic soy agar plus 5% sheep blood (blood agar, Himedia, India) from a frozen stock. Following 24 h of incubation of the agar plate, three isolated colonies were transferred to 1 mL of BHI. The broth culture was incubated overnight (12-16 h) at 37° C. with shaking. […] Mice were challenged with either strain of E. coli ATCC8739 and E. coli 1812446 or S. aureus ATC29213 and S. aureus (MRSA) ATCC33591 in a final volume of 200 μL of PBS by intraperitoneal injection (i.p.). The day of challenge was designated as day 1 of the experiment. Three hours after bacterial injection, mice (n=5) were treated, intraperitoneally, with different concentrations of peptides (1, 5 or 10 mg Kg^−1), LL-37, gentamicin and 10 mg Kg^−1 of imipenem or PBS for 8 days. For bacterial load evaluation, 5 mice per group were used. Animals were humanely killed 24 h after bacterial administration. To detect bacterial colonization, the peritoneal lavage samples were collected under sterile conditions. The peritoneal lavage was obtained by washing the cavity with 5 mL of sterile PBS. Samples were diluted serially, and 100 μL of each dilution was spread in duplicate on appropriate agar plates for the count of developed colonies. Cytokine levels (i.e., IFN-γ, IL-6, IL−10, IL−12p70 and TNF-α) in the peritoneal lavage of the mice both in the absence and presence of peptide treatment were quantified by ELISA (Peprotech, USA) according to the manufacturer's instructions.

[2] = system: murine macrophages monocytes (RAW 264.7); experiment: Cytotoxicity against RAW 264.7 cells (MTT); type: cell-based; conditions: RAW 264.7 (Table 2)
[3] = system: human red blood cells (hRBCs); experiment: Cytotoxicity / hemolysis against human red blood cells; type: cell-based; conditions: hRBCs
Protocol: Once the mechanisms by which the peptide targeted bacterial cells was elucidawted, the effect of the pentapeptide motif insertion on cytotoxicity against mammalian cells was evaluated.

NLKALAALAKKIL [Mast-L]
Survival (S. aureus ATCC29213): 80% | Survival (S. aureus MRSA ATCC33591): 60% | Toxicity when injected systemically in the infection model [1]: had to be euthanized; also recorded: led to toxicity | Gross toxicity, number of mice (TL) (mice; Dose 5 mg Kg^−1, five mice per group): 2 (TL-1) | Gross toxicity, number of mice (TL) (mice; Dose 10 mg Kg^−1, five mice per group): 5 | Dose above which highly toxic in preliminary mouse experiments (mice; single dose, peritoneally): higher than 10 mg Kg^−1 | Cytotoxic activity, Peptide Concentration [2]: 10 µmol/L | Cytotoxic activity, Peptide Concentration [3]: 7 µmol/L
